Measured values from the supplement of paper PMC10598134.
± gives the standard deviation.

Test: collision cross section of unmodified peptide (TIMS, N2, iRT-aligned); higher = larger / more extended gas-phase ion
Summary of the method: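 Collision cross section values rest on the Mason-Schamp equation applied to calibrated, run-aligned mobility data from synthetic peptides. Mobility (1/K0) was calibrated with three reference ions and aligned per run to the median iRT peptide deviation, and 1–3 technical replicates of the most abundant feature per charge state were averaged. Data came from a timsTOF Pro/HT in dda-PASEF mode (nitrogen, ~2.4 mbar) after a 120-min nanoflow C18 gradient at 60 °C.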

Sequence	collision cross section (charge state: 2) [Å²]	collision cross section (charge state: 3) [Å²]
RGGFAVQAK	337.58 ± 0.46	–
TSAYGPPTR	322.86 ± 1.6	–
YSRGAGLGFSTAPNK	407.91 ± 1.8	476.78 ± 0.4
GEKGLPGLAGDHGEFGEK	–	564.38 ± 1.3
ILDLKTGTVK	361.56 ± 1.2	442.8 ± 7.1
DHLSDKESK	345.48 ± 0.71	415 ± 3.9
GSHGQTPSPGALPLGR	–	463.73 ± 0.22
KYEEIDNAPEER	401.01 ± 1.2	466.95 ± 4.5
DAIHFYNKSLAEHR	440.43 ± 2.3	501.63 ± 3.9
TLDEILQEKK	375.43 ± 1	432.42 ± 3.6
DHSKPISNPSDNK	390.86 ± 0.14	478.96 ± 0.22
RLPTTGYLVYR	389.8 ± 0.35	475.19 ± 2.9
VEELEGEITTLNHK	424.1 ± 0.66	513.8 ± 3.5
FGVEAFSDCLR	384.72 ± 0.67	–
SDDESSQKDIK	372.47 ± 1.1	449.63 ± 0.82
GQKGEPGLPGHPGK	378.64 ± 1.5	470.96 ± 1.2
LDHLAEKFR	365.36 ± 1.5	453.05 ± 4
YADLTEDQLPSCESLK	447.81 ± 1	–
TAIQAAGYPDK	362.76 ± 1.1	–
PGLKGEQGEPGAPGIR	410.66 ± 1.2	510.99 ± 0.86
GDNGSVGEPGPK	342.97 ± 0.86	–

Sequence	collision cross section (charge state: 2) [Å²]	collision cross section (charge state: 3) [Å²]
GRGAPPPPPSR	341.09 ± 1.1	436.88 ± 3.2
RGATPPAPPRR	–	465.11 ± 2.3
LVFDEYLK	354.45 ± 0.59	–
AVAITQSPSSVR	368.2 ± 0.14	–
SPPLPEHQKIPCNSAEPK	–	527.39 ± 1.3
LEKTIDDLEEK	403.94 ± 1.9	470.73 ± 4.5
GLPGEKGER	342.99 ± 1.2	394.07 ± 1.2
SKHLQEQLNELK	411.35 ± 1.6	481.15 ± 4.4
SYSVGASGSSSR	351.41 ± 0.48	–
GNDISSGTVLSDYVGSGPPKK	–	543.89 ± 0.71
VYIASSSGSTAIKK	426.35 ± 1.9	494.89 ± 3.4
YVHADAPTNK	347.85 ± 2.8	415.08 ± 2
GSRGFPGEK	330.16 ± 0.23	–
VGVEVPDVNIEGPEGKLK	456.21 ± 2.8	537.32 ± 2.3
CSVLAAANPVYGR	385.24 ± 0.16	–
YHEDIFGLTLR	388.91 ± 0.75	462.33 ± 2
IGNSYFKEEK	377.24 ± 0.91	453.77 ± 3.2
VVDLLAPYAK	358.2 ± 7.9	–
ALLQAKASGK	343.27 ± 1.1	435.19 ± 4.7
VTLEVGKVIQQGR	428.45 ± 2.5	496.48 ± 2.3
LEENHYNTYISK	419.55 ± 1	465.19 ± 1.2

Sequence	collision cross section (charge state: 2) [Å²]	collision cross section (charge state: 3) [Å²]
VTPHPSPRGSPLPTPK	427.24	550.88 ± 0.55
GFPGAPGLPGLKGHR	–	475.59 ± 1.2
GIGRGTVQALHATGAR	428.55	501.79 ± 0.73
DVNAAIAAIKTK	391.89 ± 2.3	461.97 ± 1.6
SQLANTEPTK	350.96 ± 0.68	–
GEKGNPGVGTQGPR	370.3 ± 0.92	437.26 ± 1.3
VPQAQPTKPALK	384.79 ± 0.67	486.38 ± 2.7
GATVTRGVPPPPTVR	421.15	511.54 ± 2
VNALKNLQVK	370.39 ± 1.1	436.61 ± 6
ITLSKHQNVQLPR	434.86 ± 3.1	515.94 ± 19
MFLSFPTTK	348.96 ± 0.14	–
GGPGAPGAPGPK	323.76 ± 0.58	–
NLVTGDHIPTPQDLPQR	–	475.9 ± 0.23
LSESHPDATEDLQR	–	474.77 ± 1.7
LEEVTGKLQVAR	400.35 ± 5.3	475.59 ± 4.3
FSPPSSSLQPGK	371.43 ± 0.67	–
APPIDRSILPTAPR	416.59 ± 1.1	492.42 ± 3.4
LGPPGNPGPSGSPGPKGQK	422.18 ± 1.4	483.14 ± 1.2
GAPGGRGAQLSVPSPAR	428.52	492.17 ± 0.93
GPPRGGPGGELPR	366.24 ± 0.38	471.24 ± 3.4
ATVASSTQKFQDLGVK	459.73 ± 1.9	485.98 ± 5

Sequence	collision cross section (charge state: 2) [Å²]	collision cross section (charge state: 3) [Å²]
SAGSVESPSVSSTHR	394.4 ± 0.14	493.72 ± 0.22
IINEPTAAAIAYGLDKK	487.73 ± 3.8	556.28 ± 2.3
GVPRGVHLGSQGLQR	424.25	484.7 ± 1.8
PARGLYSR	333.72 ± 0.072	420.97 ± 6
SEGFDTYR	330.1 ± 0.73	–
VGLQVVAVKAPGFGDNR	462.44 ± 2.5	487.54 ± 2.5
TGPPGSTGSRGPPGPPGR	–	459.15 ± 0.33
GTPGKPGPR	311.01 ± 0.77	–
YGRGQLNYPLPDFSK	433.52	510.01 ± 10
GGFQNRGGGSGGGGNYR	412.29	474.43 ± 1.4
VLSIGDGIAR	348.04 ± 0.14	–
AQLSQYFDAVK	384.48 ± 1.1	–
LDYSDFQIVK	368.99 ± 0.6	–
HGVYNPNK	330.7 ± 0.79	–
SLKLNTAEDAK	372.65 ± 1.5	469.12 ± 5.3
FSHSVQNSERGK	402.29 ± 0.72	464.33 ± 2.2
GEIGPPGPR	309.77 ± 3.8	–
VLATQPGPGRGR	368.04 ± 0.27	447.7 ± 3
